Source: article PMC9537153 (Nature Communications, 2022)
Read-outs that look alike come from different tables or passages of the source.

B1: 42C5 (antibody, V domains shown)
VH: EVQLVESGGGVVQPGGSLRLSCAASGFIFSSYSMHWVRQAPGKGLEWVAFIRYDGNRKYYGDSVKGRFTVSRDNSMDTLSLHMTNLRPEDTAIYYCARVGWTWVSEPVDVWGEGATVTVAS
VL: QSVLTQPPSASGTPGQGVSISCSGSRSNVGTNYVYWYQQVPGTAPKLLILRNTQRPSGVPDRFSGSKSGSSASLAISGLRSADEGDYYCAVWDSNLDHVVFGGGTKVTVL
B2: 42D7 (antibody, V domains shown)
VH: EVQMVESGGGVVRPGGSLGLSCTASGFTFSNFGIYWVRQAPGKGLEWVAFTRYDGRNKYYGDSVKGRFTISRDNSKNTLYLQMNRLRHEDTGTYYCAKVGATWASEPMDVWGKGTTVMVSS
VL: QSVLTQPPSVSGTPGQRVTIYCSGSTSNVGTNFVYWYKQLPGAAPKLLISRNTQRPSGVPDRFSGSKSGTSAFLAISGLRSEDEASYHCSVWDGDLTGLVFGGGTKLTVL
B3: 42A9 (antibody, V domains shown)
VH: QVQVVESGGGVVQPGGSLTLSCRASGFIFSDYGLHWVRQPPGKGLEWVALINYDGRNKYYADSVRGRFTISRDNSKNTLSLQMSSLRSGDTAIYFCARVGAKWASEPMDVWGRGTTVTVSS
VL: QSVLTQPPSASGTPGQRVTISCSGSTSNVGTNFVYWYHQRPGTAPKLLIYRNDERPSGVPDRISGSKSGASASLAISGLRSEDEGDYHCSAWDGSLRRLVFGGGTKLTVL
B4: 42C11 recombinant human IgG1 (hmAb 42C11) (antibody, V domains shown)
VH: QVQLVESGGGVVQPGGSLRLSCAASGFIFSSYSMHWVRQAPGKGLEWVAFIRYDGRREYYADSVKGRFTVSRDNIMNTVFLQMNNLRPEDTATYYCAKVGWTWVSEPADVWGEGATVTVSS
VL: QSVLTQPPSTSGTPGQGVTISCSGSRSNVGTNYVYWYQQIPGRAPKLLINRNTQRPSGVPVRFSGSKSGTTAFLAITGLRSEDEADYFCAVWDGDLSGVIFGGGTKVTVL
notes: IgG1; source: Expi293F cells, heavy- and light-chain plasmids co-transfected 1:1, purified (Protein A agarose, SEC)
B5: 42C11 Fab (naturally acquired human monoclonal antibody to p19) (Fab, V domains shown)
VH: B4 VH
VL: B4 VL
notes: source: Expi293F cells, transfected, purified from supernatant (Ni Sepharose Excel, SEC)

What was measured:
[1] = target: T1, p19, C-terminal 19 kDa fragment of Merozoite Surface Protein 1 (MSP-1), Plasmodium falciparum 3D7 allele, … (Plasmodium falciparum 3D7)
T1 chain: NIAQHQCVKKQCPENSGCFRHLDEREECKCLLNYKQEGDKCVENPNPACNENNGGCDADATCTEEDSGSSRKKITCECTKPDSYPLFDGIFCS

[2] = target: T2, full-length Merozoite Surface Protein 1 (MSP-1), Plasmodium falciparum 3D7 allele, non-glycosylated, His6 (Plasmodium falciparum 3D7, UniProt Q8I0U8)
[3] = target: T2, full-length Merozoite Surface Protein 1 …; assay: ELISA; details: both partners purified
[4] = target: T3, biotinylated p19 (3D7 allele, non-glycosylated) with C-terminal Avi-tag and His6 tag (Plasmodium falciparum 3D7, enzymatically biotinylated on a C-terminal AviTag); assay: BLI; details: both partners purified
T3 chain: T1 chain

T2 sequence (Q8I0U8 whole entry, looked up): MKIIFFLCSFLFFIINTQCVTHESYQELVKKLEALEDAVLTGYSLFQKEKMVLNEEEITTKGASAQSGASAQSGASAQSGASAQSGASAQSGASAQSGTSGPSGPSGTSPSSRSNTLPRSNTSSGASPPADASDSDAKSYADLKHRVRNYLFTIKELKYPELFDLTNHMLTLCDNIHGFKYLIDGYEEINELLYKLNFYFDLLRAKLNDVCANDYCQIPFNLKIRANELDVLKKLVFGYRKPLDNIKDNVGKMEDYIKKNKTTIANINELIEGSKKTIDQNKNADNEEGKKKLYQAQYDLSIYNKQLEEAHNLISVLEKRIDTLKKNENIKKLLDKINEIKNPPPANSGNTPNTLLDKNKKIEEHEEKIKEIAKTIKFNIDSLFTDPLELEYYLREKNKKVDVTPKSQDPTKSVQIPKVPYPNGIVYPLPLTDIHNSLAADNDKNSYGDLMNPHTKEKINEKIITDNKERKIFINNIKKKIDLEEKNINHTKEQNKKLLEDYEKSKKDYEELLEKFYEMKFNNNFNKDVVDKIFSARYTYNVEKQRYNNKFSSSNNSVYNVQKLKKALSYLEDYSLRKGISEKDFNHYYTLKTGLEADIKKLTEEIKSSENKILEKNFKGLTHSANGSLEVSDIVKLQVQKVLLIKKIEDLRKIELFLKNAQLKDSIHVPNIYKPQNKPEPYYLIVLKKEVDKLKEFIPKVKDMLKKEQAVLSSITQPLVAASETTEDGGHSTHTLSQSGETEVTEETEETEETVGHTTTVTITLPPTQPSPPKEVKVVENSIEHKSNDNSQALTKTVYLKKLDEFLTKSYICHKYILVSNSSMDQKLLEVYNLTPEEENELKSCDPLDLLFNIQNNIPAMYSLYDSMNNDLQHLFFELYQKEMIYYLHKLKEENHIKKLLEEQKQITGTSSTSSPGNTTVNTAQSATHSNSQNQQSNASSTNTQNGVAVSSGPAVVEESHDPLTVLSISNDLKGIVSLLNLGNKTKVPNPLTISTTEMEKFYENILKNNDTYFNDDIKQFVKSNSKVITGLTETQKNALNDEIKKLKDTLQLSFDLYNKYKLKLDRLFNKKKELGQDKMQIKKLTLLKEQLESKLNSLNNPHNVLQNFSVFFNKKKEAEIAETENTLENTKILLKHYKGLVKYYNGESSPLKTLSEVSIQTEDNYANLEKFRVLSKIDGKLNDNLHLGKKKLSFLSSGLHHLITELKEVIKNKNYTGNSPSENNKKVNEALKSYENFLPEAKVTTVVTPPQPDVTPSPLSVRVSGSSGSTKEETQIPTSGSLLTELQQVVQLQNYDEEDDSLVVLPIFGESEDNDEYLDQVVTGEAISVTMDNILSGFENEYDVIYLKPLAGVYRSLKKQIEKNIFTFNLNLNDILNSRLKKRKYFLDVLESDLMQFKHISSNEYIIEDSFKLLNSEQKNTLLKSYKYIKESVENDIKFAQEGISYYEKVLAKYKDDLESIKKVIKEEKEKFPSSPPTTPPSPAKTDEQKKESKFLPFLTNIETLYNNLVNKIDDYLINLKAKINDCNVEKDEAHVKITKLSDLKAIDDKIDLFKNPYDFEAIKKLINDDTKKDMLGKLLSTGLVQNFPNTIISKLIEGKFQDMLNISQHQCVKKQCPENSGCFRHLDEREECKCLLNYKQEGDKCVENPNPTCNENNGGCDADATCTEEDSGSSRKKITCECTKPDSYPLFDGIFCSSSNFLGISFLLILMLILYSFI

Row | Binder | Kd [1] [nM] | binding result [2] | also measured
1 | B1 | 3.29 | binds | –
2 | B2 | 6.2 | binds | –
3 | B3 | 0.73 | binds | –
4 | B4 | – | – | binding result [3]: binds
5 | B5 | – | – | Kd [4]: 1.84 nM; koff [4]: 0.00047 s⁻¹; kon [4]: 255000 M⁻¹ s⁻¹
